Laboratory results from patent US11732043 (MERUS N V, dated 2023).
Changes are numbered by the printed parent chain.

B1: bivalent LAG-3 IgG with MF7165 variable domains (antibody, V domains shown)
VH: QVQLVQSGAEVRKPGASVKVSCKVSGYTLTELSIHWVRQAPGKGLEWMGAFDPEDGETIYAQKFQGRVTMTEDTSTDTAYMELSSLRSEDTAVYFCATGGTYYYGSGSYYTLDYWGQGTLVTVSS
VL: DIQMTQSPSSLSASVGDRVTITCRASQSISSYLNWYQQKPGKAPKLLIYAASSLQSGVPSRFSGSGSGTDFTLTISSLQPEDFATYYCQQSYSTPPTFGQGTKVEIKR
notes: Bivalent monospecific IgG; copies: 2 + 2
B2: bivalent LAG-3 IgG with MF7515 variable domains (antibody, V domains shown)
VH: QVQLVQSGAEVKKPGASVKVSCKASGYTFTSYGISWVRQAPGQGLEWMGWISAYSGNTNYAQKLQGRVTMTTDTSTSTAYMELRSLRSDDTAVYYCARRPGPALGDLDSWGQGTLVTVSS
VL: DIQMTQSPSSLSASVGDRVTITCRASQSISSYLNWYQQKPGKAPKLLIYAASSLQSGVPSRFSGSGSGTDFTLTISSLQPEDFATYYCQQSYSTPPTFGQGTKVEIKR
notes: as for B1
B3: bivalent LAG-3 IgG with MF7146 variable domains (antibody, V domains shown)
VH: EVQLVQSGAEVKKPGSSVKVSCKASGGTFNNYFITWVRQAPGQGLEWMGGIIPSFGTGNYAQKFQGRVAITADKSTNTAYMELSSLRSEDTAIYYCVRDREVGAIYYFDYWGQGTMVTVSS
VL: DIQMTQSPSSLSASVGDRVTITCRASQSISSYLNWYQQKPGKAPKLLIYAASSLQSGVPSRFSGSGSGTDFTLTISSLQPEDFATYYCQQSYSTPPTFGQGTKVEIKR
notes: as for B1
B4: H4sH15482P* (antibody, V domains shown)
VH: QVQLVESGGGVVQPGRSLRLSCVASGFTFSSYGMHWVRQAPGKGLEWVAIIWYDGSNKYYADSVKGRFTISRDNSKNTQYLQMNSLRAEDTAVYYCASVATSGDFDYYGMDVWGQGTTVTVSS
VL: EIVLTQSPATLSLSPGERTTLSCRASQRISTYLAWYQQKPGQAPRLLIYDASKRATGIPARFSGSGSGTGFTLTISSLEPEDFAVYYCQQRSNWPLTFGGGTKVEIKR
B5: PG7116, bivalent LAG-3 IgG with two MF7116 variable domains (antibody, V domains shown)
VH: EVQLVESGGGVVQPGRSLRLSCAASGFTFSSYGMHWVRQAPGKGLEWVAVISYHGSDKYYADSVKGRFTISRDNSKNTLYLQMNSLRAEDTAVYYCARDGDNWDVFDIWGQGTLVTVSS
VL: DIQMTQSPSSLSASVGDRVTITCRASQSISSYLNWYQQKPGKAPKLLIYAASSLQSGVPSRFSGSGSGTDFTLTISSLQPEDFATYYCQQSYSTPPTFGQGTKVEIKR
notes: Bivalent monospecific IgG
B6: MG7133 (monovalent) (bispecific antibody, V domains shown)
VH 1: EVQLVQSGAEVKKPGSSVKVSCKASGGTFSSHAISWVRQVPGQGLEWMGGIIPLFDTAKNAQKFQGRVTITADKSTSTAYMELSSLRSEDTAVYYCARDRETGTLYYFDYWGQGTLVTVSS
VH 2: not shown
VL: not shown
B7: MG7137 (monovalent) (bispecific antibody)
VH 1: QVQLVQSGAEVKRPGASVKVSCKVSGYTLTELSMHWVRQAPGKGLEWMGGSDPEHGETVDAQKFQGRVTMTEDTSTDTAYMELSSLRSEDTAVYYCTTGGTYYYGSGSYYTLDFWGQGTLVTVSS
VH 2: not shown
light: not shown
B8: MG7106 (monovalent) (bispecific antibody)
VH 1: QVQLVQSGAEVKKPGSSVKVSCKASGGTFSKYVVSWVRQAPGQGFDWMGGIIPMFGTANYAQMFQGRVTITADKSTSTVNMELSSLRSEDTAVYYCVRDKAVAGLYYFDSWGQGTLVTVSS
VH 2: not shown
light: not shown
B9: MG7524 (monovalent) (bispecific antibody, V domains shown)
VH 1: QVQLVQSGAEVKKPGASVKVSCKASGYTFTSYGISWVRQAPGQGLEWMGWISAYSGNTNYAQKLQGRVTMTTDTSTSTAYMELRSLRSDDTAVYYCARGSILAAQMWGDIWGQGTLVTVSS
VH 2: not shown
VL: not shown
B10: MG7139 (monovalent) (bispecific antibody, V domains shown)
VH 1: QVQLVQSGAEVKKPGSSVKVSCKASGGTFSNFAFSWVRQAPGQGLEWMGGIIPMFDTAKYAQKFQGRVTIIADKSTNTAYMDLNSLRSEDTAVYYCVRDRAIGTLYYFDYWGQGTLVTVSS
VH 2: not shown
VL: not shown
B11: MG7144 (monovalent) (bispecific antibody, V domains shown)
VH 1: QVQLVQSGAEVRKPGSSVMVSCKASGGTFSTYAINWLRQAPGQGLEWMGGIIPIFGTPYYGQRFQGRVTITADKSTNTVFMELSSLRSEDTAIYYCARDRDSGGLYYFDSWGQGTLVTVSS
VH 2: not shown
VL: not shown
B12: MG7185 (monovalent) (bispecific antibody, V domains shown)
VH 1: QVQLVQSGAEVKKPGSSVKVSCKTSGGTFSNYAFSWVRQAPGQGLEWMGGIIPIFGSTNYAQSFQGRVTITADKSTSTAYMELSSLRSEDTAVYYCARDREMGTLYFFDQWGQGTTVTVSS
VH 2: not shown
VL: not shown
B13: bivalent LAG-3 IgG with MF7100 variable domains (antibody, V domains shown)
VH: EVQLVESGGGVVQPGRSLRLSCAASGFTFSSYDTHWVRQAPGKGLEWVAVISYDGSNKYYADSVKGRFTISRDNSKNTLYLQMNSLRAEDTAMYYCARERGWDVFDIWGQGTLVTVSS
VL: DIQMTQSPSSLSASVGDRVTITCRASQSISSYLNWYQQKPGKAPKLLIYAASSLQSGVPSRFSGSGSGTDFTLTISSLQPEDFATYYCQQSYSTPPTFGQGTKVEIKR
B14: bivalent LAG-3 IgG with MF7096 variable domains (antibody, V domains shown)
VH: QVQLQESGPGLVRPSETLSLTCTVSGGSISSYSWSWIRQPPGKGLEWIGYIDYSGSTNYNPSLKSRVTISVDTSKTQFSLKLSSVSAADTAVYYCAKDLLYKWNYVEGFDIWGQGTTVTVSS
VL: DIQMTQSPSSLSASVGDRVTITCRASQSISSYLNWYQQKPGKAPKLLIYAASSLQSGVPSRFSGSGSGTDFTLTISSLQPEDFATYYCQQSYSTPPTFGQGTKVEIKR
B15: bivalent LAG-3 IgG with MF7097 variable domains (antibody, V domains shown)
VH: B14 VH with R13K, S56T, Y59F, T117M
VL: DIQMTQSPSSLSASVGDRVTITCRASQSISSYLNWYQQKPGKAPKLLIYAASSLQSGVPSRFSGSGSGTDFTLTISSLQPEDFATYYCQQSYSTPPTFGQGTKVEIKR
B16: bivalent LAG-3 IgG with MF7106 variable domains (antibody, V domains shown)
VH: B8 VH 1
VL: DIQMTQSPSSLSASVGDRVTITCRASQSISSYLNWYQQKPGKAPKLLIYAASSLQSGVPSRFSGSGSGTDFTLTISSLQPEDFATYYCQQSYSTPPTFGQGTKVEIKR
B17: bivalent LAG-3 IgG with MF7518 variable domains (antibody, V domains shown)
VH: QVQLVQSGAEVKKPGASVKVSCKASGYTFTSYGISWVRQAPGQGLEWMGWISAYSGNTNYAQKLQGRVTMTTDTSTSTAYMELRSLRSDDTAVYYCARDGSGWDDFDYWGQGTLVTVSS
VL: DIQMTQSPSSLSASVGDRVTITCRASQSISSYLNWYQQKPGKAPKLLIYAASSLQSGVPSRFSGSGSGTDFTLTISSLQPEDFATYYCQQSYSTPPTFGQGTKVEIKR
B18: bivalent LAG-3 IgG with MF7118 variable domains (antibody, V domains shown)
VH: EVQLVESGGGLVQPGGSLRLSCAASGFTFSSYAMSWVRQAPGKGLEWVSSISGGGVSTFYADSVKGRFTISRDNSKNTLYLQMNSLRAEDTAVYYCAIVPAAATPSGTYYWIFDLWGRGTLVTVSS
VL: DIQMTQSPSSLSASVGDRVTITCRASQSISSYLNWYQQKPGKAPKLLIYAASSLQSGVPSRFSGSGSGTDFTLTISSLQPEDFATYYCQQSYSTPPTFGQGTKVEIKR
B19: bivalent LAG-3 IgG with MF7167 variable domains (antibody, V domains shown)
VH: EVQLVESGGGLVQPGGSLRLSCAASGFTFSSYAMNWVRQAPGKGLEWVSTISGSGVSTYYADSVKGRFTISRDNSKNTLYLQMNTLRAEDTAVYYCAKDRGYDYSGSYHNWFDPWGQGTLVTVSS
VL: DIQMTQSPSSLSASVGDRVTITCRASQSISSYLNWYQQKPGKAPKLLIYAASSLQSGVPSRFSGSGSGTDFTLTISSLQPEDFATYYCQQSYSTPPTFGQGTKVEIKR
B20: bivalent LAG-3 IgG with MF7137 variable domains (antibody, V domains shown)
VH: B7 VH 1
VL: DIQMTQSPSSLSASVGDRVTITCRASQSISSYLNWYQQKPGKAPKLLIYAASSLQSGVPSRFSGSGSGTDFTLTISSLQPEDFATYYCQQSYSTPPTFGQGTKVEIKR
B21: bivalent LAG-3 IgG with MF7134 variable domains (antibody, V domains shown)
VH: EVQLVQSGSELKKPGASVKVSCKASGYTFTTNALNWVRQAPGQGLEWMGWINTHTGNPTYAQGFIGRFVFSLDTSVSTAYLQIRSLKAEDTAVYYCAREPNWGVYFDYWGQGTLVTVSS
VL: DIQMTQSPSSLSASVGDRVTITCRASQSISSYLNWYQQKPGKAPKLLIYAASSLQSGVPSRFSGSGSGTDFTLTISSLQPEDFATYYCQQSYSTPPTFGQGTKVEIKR
B22: bivalent LAG-3 IgG with MF7111 variable domains (antibody, V domains shown)
VH: QVQLQESGPGLVKPSETLSLTCTVSDDSISDYYWSWIRQPPGKGLEWIGYIYYSGNTKYNPSLKNRVTISVDTSKSQFSLKLTSVTAADTAVYYCARIPLTGEFDYWAQGTLVTVSS
VL: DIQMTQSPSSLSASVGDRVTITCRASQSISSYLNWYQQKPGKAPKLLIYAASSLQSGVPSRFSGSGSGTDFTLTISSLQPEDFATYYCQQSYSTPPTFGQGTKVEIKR
B23: bivalent LAG-3 IgG with MF7185 variable domains (antibody, V domains shown)
VH: B12 VH 1
VL: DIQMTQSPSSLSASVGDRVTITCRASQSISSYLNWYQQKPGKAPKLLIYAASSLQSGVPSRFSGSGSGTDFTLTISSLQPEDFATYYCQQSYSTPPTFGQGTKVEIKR

What follows are binders tested against T1, human LAG-3 (huLAG-3), full length, expressed on the cell surface (human, UniProt P18627 23-525) (assay: FACS on HEK293T cells with mouse/human LAG-3 hybrid constructs, bivalent IgG; bin = human domain bound).
T1 construct: also called 293FF-LAG-3
T1 sequence: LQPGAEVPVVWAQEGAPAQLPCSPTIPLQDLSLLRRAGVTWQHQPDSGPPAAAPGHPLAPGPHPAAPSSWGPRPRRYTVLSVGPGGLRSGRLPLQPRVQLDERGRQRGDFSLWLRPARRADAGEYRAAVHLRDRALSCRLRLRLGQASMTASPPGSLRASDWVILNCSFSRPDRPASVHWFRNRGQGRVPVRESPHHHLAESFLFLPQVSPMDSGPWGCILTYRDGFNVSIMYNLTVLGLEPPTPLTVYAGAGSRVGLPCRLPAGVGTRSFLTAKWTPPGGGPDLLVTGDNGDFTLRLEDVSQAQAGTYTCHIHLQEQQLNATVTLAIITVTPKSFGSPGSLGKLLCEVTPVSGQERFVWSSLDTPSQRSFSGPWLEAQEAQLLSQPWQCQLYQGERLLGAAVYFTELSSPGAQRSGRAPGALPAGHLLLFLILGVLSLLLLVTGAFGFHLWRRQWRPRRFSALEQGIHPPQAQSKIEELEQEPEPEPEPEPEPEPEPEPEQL

B1: binds.
B2: binds.
B3: binds.

These binders were tested against T1, human LAG-3 (huLAG-3), full length, … (assay: not given).

In the case of B4, the “EC50 (read off the curve)” value is reported as roughly 0.1 µg/mL.

Target: T1, human LAG-3 (huLAG-3), full length, …
Assay: not given
Remark: another data set of the same source

With B5 the “EC50 (read off the curve)” value was roughly 0.1 µg/mL.

Target: T1, human LAG-3 (huLAG-3), full length, …
Assay: not given
Remark: another data set of the same source

Going from B6 to B7, the EC50 falls from 11.2 µg/mL to 1.68 µg/mL (6.7-fold).

Compared with B8, B9 is 6.3-fold lower in EC50: 26.5 µg/mL for the first, 4.2 µg/mL for the second.

Compared with B10, B11 is 1.8-fold higher in EC50: 5.71 µg/mL for the first, 10.2 µg/mL for the second.

In the case of B12, the EC50 is reported as 4.49 µg/mL.

The binders below were run against T2, LAG-3 overexpressed on Jurkat/NFAT-RE reporter cells (Promega) (UniProt P18627 23-525) (assay: cell-based or functional assay).
T2 sequence (looked up): T1 sequence

First: B13
Second: B14
The “LAG-3 blockade reporter assay (Jurkat LAG-3 reporter cells with Raji MHCII cells), activity as bivalent IgG, AUC” value (“LAG-3 blockade reporter assay” for short) of the first is higher: 39.8 % of control for the first, 35.7 % of control for the second.

First: B15
Second: B16
The “LAG-3 blockade reporter assay” value of the first is higher: 21.4 % of control for the first, 16.3 % of control for the second.

Going from B17 to B18, the “LAG-3 blockade reporter assay” value falls from 64.7 % of control to 2.04 % of control.

First: B19
Second: B20
The “LAG-3 blockade reporter assay” value of the first is lower: -1.33 % of control for the first, 51.2 % of control for the second.

First: B21
Second: B22
The “LAG-3 blockade reporter assay” value of the first is lower: 34.3 % of control for the first, 51.2 % of control for the second.

Compared with B5, B23 is lower in “LAG-3 blockade reporter assay” value: 57.1 % of control for the first, 20.9 % of control for the second.
